In the nanobody polyreactivity screen of Harvey et al. (2022):

Assay: yeast display, Sf9 membrane polyspecificity reagent, FACS + sequencing; frameworks hold sequencing errors
How it was run: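 In a synthetic yeast display library (Saccharomyces cerevisiae BJ5465), nanobody expression was induced with galactose for 36–48 hours. FACS gates were set low and high (top ~1%) using anti-HA fluorescence for expression and streptavidin fluorescence for binding of the Sf9 membrane reagent. Each polyreactivity label is drawn from the gate of origin.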

| Sequence | polyreactivity (PSR sort gate) |
| --- | --- |
| QVQLVESGGGLVQAGGSLRLSCAASGLIFTYNAMGWYRQAPGKERELVASISWGGGSTYYADSVKGRFTISRDNAKHTVYLQMHSLKPEDTAVYYCNAKFKTVHTYGDTIFDRYDYWGQGTQVTVSS | low polyreactivity |
| QVQLVESGGGLVQAGGSLRLSCAASGLIFVPYAMGWYIQAPGKERELVAAISRSGGSTYYADSVKGRFTISRDNAKNTVYLQMNSLKPEDTAVYYFATLNYYGEVEYWGQGTQVTVSS | high polyreactivity |
| QVQLVESGGGLVQAGGSLRLSCAASGLIFVRYAMGWYRQAPGKERELVADISTSDGSTRYADSVKGRFTISRDNEKNTVYLQMNSLKPEDTAVYYCAGGSEYYSYGGVRFSFYYWGQGTQVTVSS | low polyreactivity |
| QVQLVESGGGLVQAGGSLRLSCAASGLIFVSYAMGWYRQEPGKERELVASITDSDSSTYYADSVKGRFTISRDNAKNTVYLQMNSLKPEDTAVYSCATGGRTEIWYPTLDYWGQGTQVTVSS | low polyreactivity |
| QVQLVESGGGLVQAGGSLRLSCAASGLIFVYNDMGWYRQAPGKERELVAGITGTGGNTYYADSVKGRFTISRDNAKNTVYLQMNSLKPEDTAVYYCAAQRSVFKSFRTTYVRYDYWGQGTQVTVSS | high polyreactivity |
| QVQLVESGGGLVQAGGSLRLSCAASGLIFVYYTMGWYRQAPGKERELVAAIRSGGGTNYADSVKGRFTISRDNAKNTVYFQMNSLKPEDTAVYYCAASIRSYAYGGRKYNYWGQGSQVTVSS | high polyreactivity |
| QVQLVESGGGLVQAGGSLRLSCAASGLIFWAYAMGWYRQAPGKERELVAAISWSGARTYYADSVKGRFTISRDNAKNTVYLQMNSLKPEDTAVYYCAAGVSSSSSGYEGDYWGQGTQVTVSS | high polyreactivity |
| QVQLVESGGGLVQAGGSLRLSCAASGLIFWAYAMGWYRQAPGTDRELVAAINWRGGSTYYADSVKGRFTISRDTAKNTVYLQMNSLKPEDTAVYYCAADSYYDEYDYWGQGTQVTVSS | low polyreactivity |
| QVQLVESGGGLVQAGGSLRLSCAASGLIFWINAMGWYRQAPWKERDLVAAITNSGGDTYYADSVKGRFTISRDNAKKTVYLQMNSLKTEDTAVYYCNADGTKWVRETYDYWGQGTQVTVSS | low polyreactivity |
| QVQLVESGGGLVQAGGSLRLSCAASGLIFWRYDMGWYRQAPGKERELVAVITSGGNTYYADSVKGRFTISRDNAKNTVYLQMNSLKPEDTAVYYCNADTWRDDYDYWGQGTQVTVSS | low polyreactivity |
| QVQLVESGGGLVQAGGSLRLSCAASGLIFYAYAMGWYRQAPGKEREFVAAINNSGGRTYYADSVKGRFTISRDNAKNTVYLQMYSLKPEDTAVYYCAVYSYYRRTYRREMDYWGQGTQVTVSS | high polyreactivity |
| QVQLVESGGGLVQAGGSLRLSCAASGLIFYDNLGWYRQAPGKERELVAAISSSGGSTSYADSVKGRFTISRDNAKNTVYLQMNSLKPEDTAVYYCAADSYPAYLGFVGFDYWGQGTQVTVSS | low polyreactivity |
| QVQLVESGGGLVQAGGSLRLSCAASGLIFYDNMGWYRQAPGKERELVAAISSSGGSRTYAYSVKGRFTISRDNAKNTVYFQMNSLKPEDTEVYYCALDKHYYGRYGVTYDYDYWGQGTQVTVSS | low polyreactivity |
| QVQLVESGGGLVQAGGSLRLSCAASGLIFYDNMGWYRQAPGKERELVAAISSSGGSTSYADSVKGRFTISRDNAKNTVYLQMNSLKPADTAVYYCAADSYPAYLGFVGFDYWGQGTQVTVSS | low polyreactivity |
| QVQLVESGGGLVQAGGSLRLSCAASGLIFYEHAMGWYRQAPGKERELVAAINYDGDSTYYADSVKGRFTISRDNAKITVYLQMNSLKPEDTAVYYCAADGGWVLFWMDYCGQGTQVTVSS | low polyreactivity |
| QVQLVESGGGLVQAGGSLRLSCAASGLIFYFNAIGWYRQAPGKERELVASITRTGSTNYADSVKGRFTISRDNAKNTVYLHMNRLKPEYTAVYYCSAPWTQILDYWGQGTQVTVSS | low polyreactivity |
| QVQLVESGGGLVQAGGSLRLSCAASGLIFYHNARGWYRQAPGKERELVAAITASGGSTYYADSVKGRFTISRDNAKNTVYFQMNSLKPEDTAVYYCAADGPLDSDLDYWGQGTQVTVSS | low polyreactivity |
| QVQLVESGGGLVQAGGSLRLSCAASGLIFYIYAMGWYRQAPGKERELVAAITTGGRTNYADSVKGRFTISRDNAKNTVELQMNSLKPEDTAVYYCAKDFPIWISHGPDTDNDYWGQGTQVTVSS | low polyreactivity |
| QVQLVESGGGLVQAGGSLRLSCAASGLIFYKNTMGWYRQAPGKERELVATITGRGGRTYYADSVKGRFTISRDIAKNSVYFQMNSLKPEDTAVYYCAARNQGRGYYWGQGTQVTVSS | high polyreactivity |
| QVQLVESGGGLVQAGGSLRLSCAASGLIFYNYAMGWYRQAPGKERELVAAISSGGSTYYADSVKGRFTISRDNAKNTVYLQMNSLKPEDTAVYYCAASGPGYSRYTQYDSWGQGTQVTVSS | high polyreactivity |
| QVQLVESGGGLVQAGGSLRLSCAASGLIFYNYAMGWYRQAPGKERELVAAITSGGSTYYADSVKGGFTISRDNAKNTVYLQMNSLKPEDTAVYYWAADLTYTVPFDYWGQGTQVTVSS | high polyreactivity |

| Sequence | polyreactivity (PSR sort gate) |
| --- | --- |
| QVQLVESGGGLVQAGGSLRLSCAASGLIFYPYAMGWYRQAPGKERELVAAISSGGSTNYADSVKGRFTISRDNAKNTVYLQMNSLKPEDTAVYYCAKRYPSFRGYGSFRYSGRKYWGQGTQVTVSS | high polyreactivity |
| QVQLVESGGGLVQAGGSLRLSCAASGLIFYRNAMGWYRQAPGKERELVAGITRGSNTYYADSVKGRFTISRVNAKNTVYLQMNSLKPEDTAVYYCAAQVPVLQRAGNTRFGYWGQGTQVTVSS | low polyreactivity |
| QVQLVESGGGLVQAGGSLRLSCAASGLIFYRYTMGWYRQAPGKERELVAAISRRGGSTFYADSVKGRFTISRDNAKNTVYLQMNSLKPEDTAVYYCAAASWYRRKIYYSWGQGTQVTVSS | high polyreactivity |
| QVQLVESGGGLVQAGGSLRLSCAASGLIFYRYVMGWYRQAPGKERELVASISTSGGRTYYADSVKGRFTISRDNAKNTVYLQMNSLKPEDTAVYYFAADFESYSRYYDGYDYWGQGTQVTVSS | high polyreactivity |
| QVQLVESGGGLVQAGGSLRLSCAASGLIFYSNAMGWYRQAPGKEREFVAAITRRGGSTYYADSVKGRFTISRDNAKNTVYLQMNSLKPEDTAVYYCNARYYHKRSTRVIFQYDYWGQGTQVTVSS | high polyreactivity |
| QVQLVESGGGLVQAGGSLRLSCAASGLIFYSYAMGWYRQAPGKERELVAAITGGGSTNYADSVKGRFTISRDNAKNTVYLPMHSLKPEDTAVYYCAAAFTLRKYDYWGQGTQVTVSS | low polyreactivity |
| QVQLVESGGGLVQAGGSLRLSCAASGLIFYTNAMGWYRQAPGKERELVAAIDRASTNYADSVKGRFTISRDNAKNTVYLQMNSLKPEDTAVYYCAAGAGRSTFTVGYWGQGTQVTVSS | low polyreactivity |
| QVQLVESGGGLVQAGGSLRLSCAASGLIFYTYAMGWYRQAPGKEREFVAAISRRGGSTYYADSVKGRFTISRDNAKNTVYLQMNSLKPEDTAVYYCNARYTYPRPYEEYYYWGQGTQVTVSS | high polyreactivity |
| QVQLVESGGGLVQAGGSLRLSCAASGLIFYTYAMGWYRQAPGKERELVADINRSDGSTYYADSVKGRFTISRDNAKNTVYLQMNRLKPEDTAVYYCAVVGPYYSRFGGRYYYWGQGTQVTVSS | low polyreactivity |
| QVQLVESGGGLVQAGGSLRLSCAASGLIFYVYAMGWYRQAPGKERELVADISTAGGITNYADSVKGRFTISRDNAKNTVYLQMNSLKPEDTAVYYCAATQPWYNTRTRYGSWGQGTQVTVSS | low polyreactivity |
| QVQLVESGGGLVQAGGSLRLSCAASGLIFYVYAMGWYRQAPGKERELVASITWSGGRTYYADSVKGRFTISRDNAKNTVYLQMNSLKPEDTAVYFCAKDWWGGPPNVYHSEYEYWGQGTQVTVSS | low polyreactivity |
| QVQLVESGGGLVQAGGSLRLSCAASGLIIDGYAMGWYRQAPGKERELVATITVSGTSTYYADSVKGRFTISRDNAKNTVYLQMNSLKPEDTAVYYCATDRNYGYYFVEYDHDYWGQGTQVTVSS | low polyreactivity |
| QVQLVESGGGLVQAGGSLRLSCAASGLIIPVYVMGWYRQAPGKERELVADITTVGSTYADSVKGRFTISRDNAKNTVYLQMNSLQPEDTAVYYCAADPPAPQYWWDHGNYWGQGTQVTVSS | low polyreactivity |
| QVQLVESGGGLVQAGGSLRLSCAASGLILAPNAMGWYRQAPGKERELVAAITFRGVRTYYADSVKGRFTISRDNEKNTVYLQMNSLKPEDTAVYYCAAAVSKHYPYNYWGQGTQVSVSS | high polyreactivity |
| QVQLVESGGGLVQAGGSLRLSCAASGLILDGNAMGWYRTAPGKERELVAAITRSGGRTYYADSVKGRFTISRDNAKNTVYFQMNSLKPEDTAVYYCAALGWSGRYRYDYWGQGTQVTVSS | high polyreactivity |
| QVQLVESGGGLVQAGGSLRLSCAASGLILGPYAMGWYRKAPGKERELVAAITRGGGTYYADSVKGRFTISRDNAKNTVYLQMNSLKPEDTAVYDCARIYYVSIYRYDYWGQGTQVTVSS | high polyreactivity |
| QVQLVESGGGLVQAGGSLRLSCAASGLILHKYAMGWYRQAPGKERELVASINSGANTNYADSVKGRFTISRDNAKNTVYLQMNSLKPEDTAVYYCNADPGFRDYYWGQGTQVNVSS | low polyreactivity |
| QVQLVESGGGLVQAGGSLRLSCAASGLILKYYAMGWDRPAPGTEREFDAALTRRGGITYYADSVKGRFSISRDNAKNTVYLQMNSLKPEDTAVYYCAADPKLGSLAYWRYSYPLYDYWGQGTQVTVSS | low polyreactivity |
| QVQLVESGGGLVQAGGSLRLSCAASGLILNSYDMGWYRQAPGKERELVAAITRSGGNTFYADSVKGRFKISRDNAKNTVYLQMNSLNPEDTAVYYCNAYYTYWSQLYYWGQGTQVTVSS | high polyreactivity |
| QVQLVESGGGLVQAGGSLRLSCAASGLILRYNGMGWYRQAPGKERELVAAISSNAGTTSYADSVKGRFTISRDNAKNTVYLQMNSLKPEDTAVYWGQGTQVTVSS | low polyreactivity |
